Assay results taken from patent publication US20240115744A1, “FIBRIN-BINDING COMPOUNDS FOR IMAGING AND TREATMENT” (Collagen Medical, LLC, priority 2019, published 2024).
Bridges are numbered along the chain shown (N, C = ends). [ ]: non-standard residue; d: D form. The star is where a group is joined. Tyr(3-Cl) = N[C@@H](Cc1ccc(O)c(Cl)c1)C(=O)O; Nicotinoyl(6-F) = O=C(c1ccc(F)nc1)*; Hyp = O=C(O)[C@@H]1C[C@@H](O)CN1

B1: Compound 4 (peptide)
peptide: {Nicotinoyl(6-F)}-Y[dE]C[Hyp][Tyr(3-Cl)]GLCHIQ-NH2
modifications: disulfide 3-8
SMILES: CC[C@H](C)[C@H](NC(=O)[C@H](Cc1c[nH]cn1)NC(=O)[C@@H]1CSSC[C@H](NC(=O)[C@@H](CCC(=O)O)NC(=O)[C@H](Cc2ccc(O)cc2)NC(=O)c2ccc(F)nc2)C(=O)N2C[C@H](O)C[C@H]2C(=O)N[C@@H](Cc2ccc(O)c(Cl)c2)C(=O)NCC(=O)N[C@@H](CC(C)C)C(=O)N1)C(=O)N[C@@H](CCC(N)=O)C(N)=O
B2: Compound 12 (peptide)
peptide: {Nicotinoyl(6-F)}-Y[dE]C[Hyp][Tyr(3-Cl)]DLCYIQ-NH2
modifications: disulfide 3-8
SMILES: CC[C@H](C)[C@H](NC(=O)[C@H](Cc1ccc(O)cc1)NC(=O)[C@@H]1CSSC[C@H](NC(=O)[C@@H](CCC(=O)O)NC(=O)[C@H](Cc2ccc(O)cc2)NC(=O)c2ccc(F)nc2)C(=O)N2C[C@H](O)C[C@H]2C(=O)N[C@@H](Cc2ccc(O)c(Cl)c2)C(=O)N[C@@H](CC(=O)O)C(=O)N[C@@H](CC(C)C)C(=O)N1)C(=O)N[C@@H](CCC(N)=O)C(N)=O
B3: Compound 7 (peptide)
peptide: {Nicotinoyl(6-F)}-Y[dE]C[Hyp][Tyr(3-Cl)]GLCYIQ-NH2
modifications: disulfide 3-8
SMILES: CC[C@H](C)[C@H](NC(=O)[C@H](Cc1ccc(O)cc1)NC(=O)[C@@H]1CSSC[C@H](NC(=O)[C@@H](CCC(=O)O)NC(=O)[C@H](Cc2ccc(O)cc2)NC(=O)c2ccc(F)nc2)C(=O)N2C[C@H](O)C[C@H]2C(=O)N[C@@H](Cc2ccc(O)c(Cl)c2)C(=O)NCC(=O)N[C@@H](CC(C)C)C(=O)N1)C(=O)N[C@@H](CCC(N)=O)C(N)=O
B4: Compound 5 (peptide)
peptide: {Nicotinoyl(6-F)}-Y[dE]C[Hyp][Tyr(3-Cl)]GLCHI[dQ]-NH2
modifications: disulfide 3-8
SMILES: CC[C@H](C)[C@H](NC(=O)[C@H](Cc1c[nH]cn1)NC(=O)[C@@H]1CSSC[C@H](NC(=O)[C@@H](CCC(=O)O)NC(=O)[C@H](Cc2ccc(O)cc2)NC(=O)c2ccc(F)nc2)C(=O)N2C[C@H](O)C[C@H]2C(=O)N[C@@H](Cc2ccc(O)c(Cl)c2)C(=O)NCC(=O)N[C@@H](CC(C)C)C(=O)N1)C(=O)N[C@H](CCC(N)=O)C(N)=O
B5: Compound 13 (peptide)
peptide: {Nicotinoyl(6-F)}-Y[dE]C[Hyp][Tyr(3-Cl)]GLCYI[dQ]-NH2
modifications: disulfide 3-8
SMILES: CC[C@H](C)[C@H](NC(=O)[C@H](Cc1ccc(O)cc1)NC(=O)[C@@H]1CSSC[C@H](NC(=O)[C@@H](CCC(=O)O)NC(=O)[C@H](Cc2ccc(O)cc2)NC(=O)c2ccc(F)nc2)C(=O)N2C[C@H](O)C[C@H]2C(=O)N[C@@H](Cc2ccc(O)c(Cl)c2)C(=O)NCC(=O)N[C@@H](CC(C)C)C(=O)N1)C(=O)N[C@H](CCC(N)=O)C(N)=O
B6: Compound 14 (peptide)
peptide: {Nicotinoyl(6-F)}-Y[dE]C[Hyp][Tyr(3-Cl)][dD]LCYIQ-NH2
modifications: disulfide 3-8
SMILES: CC[C@H](C)[C@H](NC(=O)[C@H](Cc1ccc(O)cc1)NC(=O)[C@@H]1CSSC[C@H](NC(=O)[C@@H](CCC(=O)O)NC(=O)[C@H](Cc2ccc(O)cc2)NC(=O)c2ccc(F)nc2)C(=O)N2C[C@H](O)C[C@H]2C(=O)N[C@@H](Cc2ccc(O)c(Cl)c2)C(=O)N[C@H](CC(=O)O)C(=O)N[C@@H](CC(C)C)C(=O)N1)C(=O)N[C@@H](CCC(N)=O)C(N)=O
B7: Compound 3 (peptide)
peptide: {Nicotinoyl(6-F)}-[dY][dE]C[Hyp][Tyr(3-Cl)]GLCHI[dL]-NH2
modifications: disulfide 3-8
SMILES: CC[C@H](C)[C@H](NC(=O)[C@H](Cc1c[nH]cn1)NC(=O)[C@@H]1CSSC[C@H](NC(=O)[C@@H](CCC(=O)O)NC(=O)[C@@H](Cc2ccc(O)cc2)NC(=O)c2ccc(F)nc2)C(=O)N2C[C@H](O)C[C@H]2C(=O)N[C@@H](Cc2ccc(O)c(Cl)c2)C(=O)NCC(=O)N[C@@H](CC(C)C)C(=O)N1)C(=O)N[C@H](CC(C)C)C(N)=O
B8: Compound 6 (peptide)
peptide: {Nicotinoyl(6-F)}-[dY][dE]C[Hyp][Tyr(3-Cl)]GLCYIQ-NH2
modifications: disulfide 3-8
SMILES: CC[C@H](C)[C@H](NC(=O)[C@H](Cc1ccc(O)cc1)NC(=O)[C@@H]1CSSC[C@H](NC(=O)[C@@H](CCC(=O)O)NC(=O)[C@@H](Cc2ccc(O)cc2)NC(=O)c2ccc(F)nc2)C(=O)N2C[C@H](O)C[C@H]2C(=O)N[C@@H](Cc2ccc(O)c(Cl)c2)C(=O)NCC(=O)N[C@@H](CC(C)C)C(=O)N1)C(=O)N[C@@H](CCC(N)=O)C(N)=O
B9: Compound 9 (peptide)
peptide: {Nicotinoyl(6-F)}-[dY][dE]C[Hyp][Tyr(3-Cl)]GLCYI[dL]-NH2
modifications: disulfide 3-8
SMILES: CC[C@H](C)[C@H](NC(=O)[C@H](Cc1ccc(O)cc1)NC(=O)[C@@H]1CSSC[C@H](NC(=O)[C@@H](CCC(=O)O)NC(=O)[C@@H](Cc2ccc(O)cc2)NC(=O)c2ccc(F)nc2)C(=O)N2C[C@H](O)C[C@H]2C(=O)N[C@@H](Cc2ccc(O)c(Cl)c2)C(=O)NCC(=O)N[C@@H](CC(C)C)C(=O)N1)C(=O)N[C@H](CC(C)C)C(N)=O
B10: Compound 2 (peptide)
peptide: {Nicotinoyl(6-F)}-[dY][dE]C[Hyp][Tyr(3-Cl)]GLCHIQ-NH2
modifications: disulfide 3-8
SMILES: CC[C@H](C)[C@H](NC(=O)[C@H](Cc1c[nH]cn1)NC(=O)[C@@H]1CSSC[C@H](NC(=O)[C@@H](CCC(=O)O)NC(=O)[C@@H](Cc2ccc(O)cc2)NC(=O)c2ccc(F)nc2)C(=O)N2C[C@H](O)C[C@H]2C(=O)N[C@@H](Cc2ccc(O)c(Cl)c2)C(=O)NCC(=O)N[C@@H](CC(C)C)C(=O)N1)C(=O)N[C@@H](CCC(N)=O)C(N)=O
B11: Compound 8 (peptide)
peptide: {Nicotinoyl(6-F)}-Y[dE]C[Hyp][Tyr(3-Cl)]GLCHI[dL]-NH2
modifications: disulfide 3-8
SMILES: CC[C@H](C)[C@H](NC(=O)[C@H](Cc1c[nH]cn1)NC(=O)[C@@H]1CSSC[C@H](NC(=O)[C@@H](CCC(=O)O)NC(=O)[C@H](Cc2ccc(O)cc2)NC(=O)c2ccc(F)nc2)C(=O)N2C[C@H](O)C[C@H]2C(=O)N[C@@H](Cc2ccc(O)c(Cl)c2)C(=O)NCC(=O)N[C@@H](CC(C)C)C(=O)N1)C(=O)N[C@H](CC(C)C)C(N)=O

molecular target: soluble fibrin fragment DD(E); assay: fluorescence polarization, displacement of the TRITC peptide from DD(E)

Row | Binder | Ki [nM]
1 | B1 | 180
2 | B2 | 1200
3 | B3 | 580
4 | B4 | 230
5 | B5 | 1250
6 | B6 | 2760
7 | B7 | 140
8 | B8 | 340
9 | B9 | 730
10 | B10 | 70
11 | B11 | 640

molecular target: soluble fibrin fragment DD(E); assay: fluorescence polarization DD(E) assay

Row | Binder | Kd [nM]
12 | B1 | < 600
13 | B3 | < 600
14 | B4 | < 600
15 | B7 | < 600
16 | B8 | < 600
17 | B10 | < 600
